± gives the uncertainty stated by the source.
Experiment: self-splicing fitness, log relative to wild type (ln ratio); higher = more splicing; Tetrahymena group I intron in knt gene, E. coli kanamycin selection, DiMSum; sequences stand for … in CUCUCU…GGAGGGAAAAGUUAUCAGGCAUGCACCUGGUAGCUAGUCUUUAAACCAAUAGAUUGCAUCGGUUUAAAAGGCAAGACCGUCAAAUUGCGGGAAAGGGGUCAACAGCCGUUCAGUACCAAGUCUCAGGGGAAACUUUGAGAUGGCCUUGCAAAGGGUAUGGUAAUAAGCUGACGGACAUGGUCCUAACCACGCAGCCAAGUCCUAAGUCAACAGAUCUUCUGUUGAUAUGGAUGCAGUUCACAGACUAAAUGUCGGUCGGGGAAGAUGUAUUCUUCUCAUAAGAUAUAGUCGGACCUCUCCUUAAUGGGAGCUAGCGGAUGAAGUGAUGCAACACUGGAGCCGCUGGGAACUAAUUUGUAUGCGAAAGUAUAUUGAUUAGUUUUGGAGUACUCGUGGUCG
How it was run: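 Pooled colonies went to amplicon sequencing on an Illumina HiSeq 2500 after six replicate transformations. The plates were LB agar with 100 μg/mL carbenicillin, 50 μM IPTG and 0.2% rhamnose, with or without 25 μg/mL kanamycin, incubated overnight at 37°C or 30°C. The E. coli BL21(DE3) library had all eight P1ex-region intron nucleotides randomised, the intron placed in the knt kanamycin-resistance gene on pET-22b(+). DiMSum fitness is the error-weighted combination of replicate fold changes, kanamycin against none, normalised to wild type.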

| Sequence | self-splicing fitness (ln) (37 °C) | self-splicing fitness (ln) (30 °C) |
| --- | --- | --- |
| UCUUAGCAAUAUUACGACUA | -2.26 ± 0.45 |  |
| UUCAAGCAAUAUUACGUGAU | -0.468 ± 0.11 | -1.8 ± 0.096 |
| UGGUAGCAAUAUUACGCAUC | -3.68 ± 0.46 |  |
| AACGAGCAAUAUUACGCGGC | -2.15 ± 0.33 | -2.71 ± 0.33 |
| GCGGAGCAAUAUUACGAGAC |  | -2.85 ± 0.38 |
| ACUCAGCAAUAUUACGAAUC | -1.05 ± 0.32 |  |
| AAUCAGCAAUAUUACGGUCA | 0.432 ± 0.12 | 0.236 ± 0.1 |
| CGCAAGCAAUAUUACGUCAC | -2.12 ± 0.23 | -3.45 ± 0.21 |
| CCCAAGCAAUAUUACGACUA | -2.31 ± 0.18 | -2.52 ± 0.17 |
| UAGUAGCAAUAUUACGUUAC | -2.97 ± 0.23 | -3.78 ± 0.2 |
| AUCCAGCAAUAUUACGACAG | -1.75 ± 0.19 | -3.47 ± 0.14 |
| UUGCAGCAAUAUUACGCAAG | -2.89 ± 0.36 | -1.92 ± 0.16 |
| ACGUAGCAAUAUUACGACCA | -0.34 ± 0.1 | -0.97 ± 0.086 |
| CUUGAGCAAUAUUACGAGCC |  | -1.39 ± 0.33 |
| UUGCAGCAAUAUUACGUACA | -0.0402 ± 0.13 | 0.118 ± 0.11 |
| CCACAGCAAUAUUACGUCGC | -3.36 ± 0.22 | -3.63 ± 0.17 |
| AUAGAGCAAUAUUACGACGU | 0.556 ± 0.099 | 0.0144 ± 0.077 |
| CCCCAGCAAUAUUACGAGUC | -3.03 ± 0.17 | -3.78 ± 0.14 |
| UAUUAGCAAUAUUACGUAAC | -1.09 ± 0.2 | -1.8 ± 0.19 |
| GAGUAGCAAUAUUACGUUCA | -0.31 ± 0.095 | -0.849 ± 0.075 |
| GCAUAGCAAUAUUACGUCGG | -1.47 ± 0.13 | -2.24 ± 0.14 |
| UUUCAGCAAUAUUACGUCCC | -0.811 ± 0.4 | -1.43 ± 0.39 |
| UCUAAGCAAUAUUACGACCC | -0.661 ± 0.44 |  |
| CCAAAGCAAUAUUACGAUAC |  | -2.15 ± 0.27 |
| CAGAAGCAAUAUUACGAGGC | -2.83 ± 0.4 |  |
| UAGAAGCAAUAUUACGAUUG | -0.442 ± 0.083 | -1.74 ± 0.07 |

| Sequence | self-splicing fitness (ln) (37 °C) | self-splicing fitness (ln) (30 °C) |
| --- | --- | --- |
| GAGCAGCAAUAUUACGAGGG | -2.81 ± 0.38 |  |
| AUUCAGCAAUAUUACGAGGC | -1.51 ± 0.19 | -3.49 ± 0.19 |
| UAGCAGCAAUAUUACGUAGC | -2.78 ± 0.38 | -3.58 ± 0.44 |
| CCCGAGCAAUAUUACGGAUA | -2.89 ± 0.27 | -3.04 ± 0.22 |
| CCUCAGCAAUAUUACGCCUA | -1.6 ± 0.2 | -2.6 ± 0.21 |
| UCGGAGCAAUAUUACGUCAC | -2.68 ± 0.36 | -3.68 ± 0.43 |
| UGUCAGCAAUAUUACGGACA | -1.75 ± 0.21 | -3.1 ± 0.29 |
| GUUAAGCAAUAUUACGACUU | 0.278 ± 0.13 | 0.183 ± 0.11 |
| AUGAAGCAAUAUUACGUUCG | 0.464 ± 0.12 | 0.356 ± 0.086 |
| CAACAGCAAUAUUACGUAUG | -1.35 ± 0.1 | -2.88 ± 0.12 |
| GCUUAGCAAUAUUACGAGCU | -1.89 ± 0.34 | -2.37 ± 0.19 |
| GUCUAGCAAUAUUACGUUAA | -0.331 ± 0.094 | -0.894 ± 0.097 |
| GUCGAGCAAUAUUACGAUGG | -1.85 ± 0.18 | -3.01 ± 0.28 |
| GGUGAGCAAUAUUACGUGUC | -1.99 ± 0.32 | -3.03 ± 0.26 |
| AUUGAGCAAUAUUACGGGCC | -2.05 ± 0.43 | -2.96 ± 0.36 |
| GUACAGCAAUAUUACGCUCA | -0.188 ± 0.11 | -1.07 ± 0.091 |
| AACCAGCAAUAUUACGGUUG | -0.839 ± 0.06 | -2.21 ± 0.05 |
| GCUAAGCAAUAUUACGUGAA | -0.304 ± 0.074 | -0.92 ± 0.059 |
| GCCCAGCAAUAUUACGAUUA | -0.936 ± 0.089 | -1.71 ± 0.1 |
| UGAUAGCAAUAUUACGGUCG | -0.477 ± 0.1 | -0.332 ± 0.098 |
| GCGAAGCAAUAUUACGGGUC | -0.782 ± 0.19 |  |
| AAACAGCAAUAUUACGAGUU | -0.482 ± 0.075 | -1.94 ± 0.068 |
| UAUUAGCAAUAUUACGCAUA | -0.355 ± 0.26 | -0.754 ± 0.29 |
| UGCAAGCAAUAUUACGCCAG | -1.9 ± 0.26 | -2.88 ± 0.19 |
| GGAUAGCAAUAUUACGUACC | -0.601 ± 0.25 | -2.37 ± 0.26 |

Reference: the supplement of paper PMC7877785
